According to the supplement of paper PMC11316812:
± gives the standard deviation of the averaged measurements.

Tests used:
MCF7 = experiment: percentage of EdU-negative (G0-arrested) nuclei per well, 72 h; higher = more G0 arrest; conditions: reference: sequence is the full UniProt precursor, the tested protein was the secreted form or ectodomain
hTERT-HMEC = experiment: as above; conditions: reference: sequence is the full UniProt precursor, the tested protein was the secreted form or ectodomain
[1] = protein concentration 0.00775 µM
[2] = protein concentration 0.0775 µM
[3] = protein concentration 0.0115 µM
[4] = protein concentration 0.0225 µM
[5] = protein concentration 0.0193425 µM
[6] = protein concentration 0.193425 µM
[7] = protein concentration 0.00875 µM
[8] = protein concentration 0.0875 µM
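Also: secreted proteins added to cultured cells, EdU pulse at the end, nuclei found by Hoechst imaging, EdU status from nuclear versus surrounding ring intensity ratio, PBS as neutral control.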

MPLRDETLREVWASDSGHEEESLSPEAPRRPKQRPAPAQRLRKKRTEAPESPCPTGSKPRKPGAGRTGRPREEPSPDPAQARAPQTVYARFLRDPEAKKRDPRETFLVARAPDAEDEEEEEEEDEEDEEEEAEEKKEKILLPPKKPLREKSSADLKERRAKAQGPRGDLGSPDPPPKPLRVRNKEAPAGEGTKMRKTKKKGSGEADKDPSGSPASARKSPAAMFLVGEGSPDKKALKKKGTPKGARKEEEEEEEAATVIKKSNQKGKAKGKGKKKAKEERAPSPPVEVDEPREFVLRPAPQGRTVRCRLTRDKKGMDRGMYPSYFLHLDTEKKVFLLAGRKRKRSKTANYLISIDPTNLSRGGENFIGKLRSNLLGNRFTVFDNGQNPQRGYSTNVASLRQELAAVIYETNVLGFRGPRRMTVIIPGMSAENERVPIRPRNASDGLLVRWQNKTLESLIELHNKPPVWNDDSGSYTLNFQGRVTQASVKNFQIVHADDPDYIVLQFGRVAEDAFTLDYRYPLCALQAFAIALSSFDGKLACE
percentage of EdU-negative (MCF7; [1]): 25.1 ± 0.28% | percentage of EdU-negative (MCF7; [2]): 25.5 ± 0.95% | percentage of EdU-negative (hTERT-HMEC; [1]): 5.21 ± 0.36% | percentage of EdU-negative (hTERT-HMEC; [2]): 6.67 ± 0.59%

MARFWVCVAGAGFFLAFLVLHSRFCGSPVLRNFTFAVSWRTEKILYRLDVGWPKHPEYFTGTTFCVAVDSLNGLVYIGQRGDNIPKILVFTEDGYFLRAWNYTVDTPHGIFAASTLYEQSVWITDVGSGFFGHTVKKYSSFGDLVQVLGTPGKKGTSLNPLQFDNPAELYVEDTGDIYIVDGDGGLNNRLIKLSQDFMILWLHGENGTGPAKFNIPHSVTLDSAGRVWVADRGNKRIQVFDKDTGEWLGAWNNCFTEEGPSSVRFTPDGKYLIVAQLNLSRLSVVAAPPVGSIGECSVISTIQLADQVLPHLLEVDRKTGAVYVAEIGAKQVQKYVPLNSYVPSFGS [Q5JS37]
percentage of EdU-negative (MCF7; [3]): 26.8 ± 0.58% | percentage of EdU-negative (MCF7; protein concentration 0.115 µM): 29.3 ± 1.4% | percentage of EdU-negative (hTERT-HMEC; [3]): 4.82 ± 0.15% | percentage of EdU-negative (hTERT-HMEC; protein concentration 0.115 µM): 16.1 ± 0.13%

MEIVWEVLFLLQANFIVCISAQQNSPKIHEGWWAYKEVVQGSFVPVPSFWGLVNSAWNLCSVGKRQSPVNIETSHMIFDPFLTPLRINTGGRKVSGTMYNTGRHVSLRLDKEHLVNISGGPMTYSHRLEEIRLHFGSEDSQGSEHLLNGQAFSGEVQLIHYNHELYTNVTEAAKSPNGLVVVSIFIKVSDSSNPFLNRMLNRDTITRITYKNDAYLLQGLNIEELYPETSSFITYDGSMTIPPCYETASWIIMNKPVYITRMQMHSLRLLSQNQPSQIFLSMSDNFRPVQPLNNRCIRTNINFSLQGKDCPNNRAQKLQYRVNEWLLK [Q9NS85]
percentage of EdU-negative (MCF7; [4]): 25.5 ± 2.5% | percentage of EdU-negative (MCF7; protein concentration 0.225 µM): 27.9 ± 0.69% | percentage of EdU-negative (hTERT-HMEC; [4]): 5.049 ± 0.027% | percentage of EdU-negative (hTERT-HMEC; protein concentration 0.225 µM): 8.51 ± 1.1%

MDLSAAAALCLWLLSACRPRDGLEAAAVLRAAGAGPVRSPGGGGGGGGGGRTLAQAAGAAAVPAAAVPRARAARRAAGSGFRNGSVVPHHFMMSLYRSLAGRAPAGAAAVSASGHGRADTITGFTDQATQDESAAETGQSFLFDVSSLNDADEVVGAELRVLRRGSPESGPGSWTSPPLLLLSTCPGAARAPRLLYSRAAEPLVGQRWEAFDVADAMRRHRREPRPPRAFCLLLRAVAGPVPSPLALRRLGFGWPGGGGSAAEERAVLVVSSRTQRKESLFREIRAQARALGAALASEPLPDPGTGTASPRAVIGGRRRRRTALAGTRTAQGSGGGAGRGHGRRGRSRCSRKPLHVDFKELGWDDWIIAPLDYEAYHCEGLCDFPLRSHLEPTNHAIIQTLLNSMAPDAAPASCCVPARLSPISILYIDAANNVVYKQYEDMVVEACGCR [Q7Z4P5]
percentage of EdU-negative (MCF7; [5]): 26.75 ± 0.031% | percentage of EdU-negative (MCF7; [6]): 28.9 ± 2.2% | percentage of EdU-negative (hTERT-HMEC; [5]): 5.309 ± 0.0057% | percentage of EdU-negative (hTERT-HMEC; [6]): 5.34 ± 1.2%

MKLNLVQIFFMLLMLLLGLGMGLGLGLHMATAVLEESDQPLNEFWSSDSQDKAEATEEGDGTQTTETLVLSNKEVVQPGWPEDPILGEDEVGGNKMLRASALFQSNKDYLRLDQTDRECNDMMAHKMKEPSQSCIAQYAFIHEDLNTVKAVCNSPVIACELKGGKCHKSSRPFDLTLCELSQPDQVTPNCNYLTSVIKKHIIITCNDMKRQLPTGQ [Q5GAN6]
percentage of EdU-negative (MCF7; [4]): 27.3 ± 3.4% | percentage of EdU-negative (MCF7; protein concentration 0.225 µM): 25.2 ± 0.41% | percentage of EdU-negative (hTERT-HMEC; [4]): 5.66 ± 1.3% | percentage of EdU-negative (hTERT-HMEC; protein concentration 0.225 µM): 5.77 ± 0.33%

MDPQCTMGLSNILFVMAFLLSGAAPLKIQAYFNETADLPCQFANSQNQSLSELVVFWQDQENLVLNEVYLGKEKFDSVHSKYMGRTSFDSDSWTLRLHNLQIKDKGLYQCIIHHKKPTGMIRIHQMNSELSVLANFSQPEIVPISNITENVYINLTCSSIHGYPEPKKMSVLLRTKNSTIEYDGVMQKSQDNVTELYDVSISLSVSFPDVTSNMTIFCILETDKTRLLSSPFSIELEDPQPPPDHIPWITAVLPTVIICVMVFCLILWKWKKKKRPRNSYKCGTNTMEREESEQTKKREKIHIPERSDEAQRVFKSSKTSSCDKSDTCF
percentage of EdU-negative (MCF7; [4]): 24 ± 1.6% | percentage of EdU-negative (MCF7; protein concentration 0.225 µM): 25.9 ± 0.81% | percentage of EdU-negative (hTERT-HMEC; [4]): 4.6 ± 0.096% | percentage of EdU-negative (hTERT-HMEC; protein concentration 0.225 µM): 6.71 ± 0.18%

MLRKGCCVELLLLLVAAELPLGGGCPRDCVCYPAPMTVSCQAHNFAAIPEGIPVDSERVFLQNNRIGLLQPGHFSPAMVTLWIYSNNITYIHPSTFEGFVHLEELDLGDNRQLRTLAPETFQGLVKLHALYLYKCGLSALPAGVFGGLHSLQYLYLQDNHIEYLQDDIFVDLVNLSHLFLHGNKLWSLGPGTFRGLVNLDRLLLHENQLQWVHHKAFHDLRRLTTLFLFNNSLSELQGECLAPLGALEFLRLNGNPWDCGCRARSLWEWLQRFRGSSSAVPCVSPGLRHGQDLKLLRAEDFRNCTGPASPHQIKSHTLTTTDRAARKEHHSPHGPTRSKGHPHGPRPGHRKPGKNCTNPRNRNQISKAGAGKQAPELPDYAPDYQHKFSFDIMPTARPKRKGKCARRTPIRAPSGVQQASSASSLGASLLAWTLGLAVTLR [Q86UN2]
percentage of EdU-negative (MCF7; [7]): 26.2 ± 0.18% | percentage of EdU-negative (MCF7; [8]): 28.6 ± 1.4% | percentage of EdU-negative (hTERT-HMEC; [7]): 5.4 ± 1% | percentage of EdU-negative (hTERT-HMEC; [8]): 5.31 ± 0.34%
